System: T1, C[C@@H]1O[C@@H](OC[C@H]2O[C@@H](Oc3c(-c4ccc(O)c(O)c4)oc4cc(O)cc(O)c4c3=O)[C@H](O)[C@@H](O)[C@@H]2O)[C@H](O)[C@H](O)[C@H]1O
T1 construct: N-terminal His tag, pET28a in E. coli BL21(DE3), Ni-NTA; forward coding primer starts ATGGCCGACGACTATGGC (MADDYG)
Test: purified protein
Assay type: biochemical, Carthamus tinctorius
Details: range of rutin concentrations; no redox partner or NADPH stated

Question: How did the Km turn out when “CtCYP82G24 (Carthamus tinctorius var. tinctorius)” was run?
Answer: 5.37 ± 0.123 mM
